Data taken from US20150246959A1 (US Dept. of Health and Human Services, published 2015).

Experiments:
Experiment in all cases: cell-based or functional assay
[1] = target: MAGE-A3: 243-256 peptide presented by HLA-DP*0401 on 293-CIITA cells (human, UniProt P20036 29-260)
[2] = target: MAGE-A3: 243-255 peptide presented by HLA-DP*0401 on 293-CIITA cells (human, UniProt P20036 29-260)
[3] = target: MAGE-A3: 243-254 peptide presented by HLA-DP*0401 on 293-CIITA cells (human, UniProt P20036 29-260)
[4] = target: MAGE-A3: 243-253 peptide presented by HLA-DP*0401 on 293-CIITA cells (human, UniProt P20036 29-260)
[5] = target: MAGE-A3: 245-258 peptide presented by HLA-DP*0401 on 293-CIITA cells (human, UniProt P20036 29-260)
[6] = target: MAGE-A3: 246-258 peptide presented by HLA-DP*0401 on 293-CIITA cells (human, UniProt P20036 29-260)
[7] = target: MAGE-A3: 247-258 peptide presented by HLA-DP*0401 on 293-CIITA cells (human, UniProt P20036 29-260)
[8] = target: MAGE-A3: 248-258 peptide presented by HLA-DP*0401 on 293-CIITA cells (human, UniProt P20036 29-260)
[9] = target: MAGE-A3: 249-258 peptide presented by HLA-DP*0401 on 293-CIITA cells (human, UniProt P20036 29-260)
[10] = target: MAGE-A6: 248-258 peptide presented by HLA-DP*0401 on 293-CIITA cells (human, UniProt P20036 29-260)
[11] = target: MAGE-A2/A12: 248-258 peptide presented by HLA-DP*0401 on 293-CIITA cells (human, UniProt P20036 29-260)
[12] = target: MAGE-A4/A9: 249-259 peptide presented by HLA-DP*0401 on 293-CIITA cells (human, UniProt P20036 29-260)
[13] = target: MAGE-A8: 251-261 peptide presented by HLA-DP*0401 on 293-CIITA cells (human, UniProt P20036 29-260)
[14] = target: MAGE-A1/B4: 241-251 peptide presented by HLA-DP*0401 on 293-CIITA cells (human, UniProt P20036 29-260)
[15] = target: MAGE-B2: 250-260 peptide presented by HLA-DP*0401 on 293-CIITA cells (human, UniProt P20036 29-260)
[16] = target: MAGE-B10: 250-260 peptide presented by HLA-DP*0401 on 293-CIITA cells (human, UniProt P20036 29-260)
[17] = target: MAGE-B16: 252-262 peptide presented by HLA-DP*0401 on 293-CIITA cells (human, UniProt P20036 29-260)
[18] = target: MAGE-C1: 113-123 peptide presented by HLA-DP*0401 on 293-CIITA cells (human, UniProt P20036 29-260)
[19] = target: MAGE-D4: 300-315 peptide presented by HLA-DP*0401 on 293-CIITA cells (human, UniProt P20036 29-260)
[20] = target: MAGE-D2: 413-428 peptide presented by HLA-DP*0401 on 293-CIITA cells (human, UniProt P20036 29-260)
[21] = target: MAGE-L2: 582-597 peptide presented by HLA-DP*0401 on 293-CIITA cells (human, UniProt P20036 29-260)
[22] = target: MAGE-G1: 220-235 peptide presented by HLA-DP*0401 on 293-CIITA cells (human, UniProt P20036 29-260)
[23] = target: Necdin: 237-247 peptide presented by HLA-DP*0401 on 293-CIITA cells (human, UniProt P20036 29-260)
[24] = target: MAGE-A3: 243-258 peptide presented by HLA-DP*0401 on 293-CIITA cells (human, UniProt P20036 29-260)

IFN-g (pg/ml); CD4+ T cells of PBMC-1; 293-CIITA pulsed with peptide [1]: 1020 pg/mL
IFN-g (pg/ml); CD4+ T cells of PBMC-2; 293-CIITA pulsed with peptide [1]: 1670 pg/mL
IFN-g (pg/ml); CD4+ T cells of PBMC-1; 293-CIITA pulsed with peptide [2]: 76 pg/mL
IFN-g (pg/ml); CD4+ T cells of PBMC-2; 293-CIITA pulsed with peptide [2]: 111 pg/mL
IFN-g (pg/ml); CD4+ T cells of PBMC-1; 293-CIITA pulsed with peptide [3]: 28 pg/mL
IFN-g (pg/ml); CD4+ T cells of PBMC-2; 293-CIITA pulsed with peptide [3]: 30 pg/mL
IFN-g (pg/ml); CD4+ T cells of PBMC-1; 293-CIITA pulsed with peptide [4]: 0 pg/mL
IFN-g (pg/ml); CD4+ T cells of PBMC-2; 293-CIITA pulsed with peptide [4]: 30 pg/mL
IFN-g (pg/ml); CD4+ T cells of PBMC-1; 293-CIITA pulsed with peptide [5]: 9290 pg/mL
IFN-g (pg/ml); CD4+ T cells of PBMC-2; 293-CIITA pulsed with peptide [5]: 8920 pg/mL
IFN-g (pg/ml); CD4+ T cells of PBMC-1; 293-CIITA pulsed with peptide [6]: 7140 pg/mL
IFN-g (pg/ml); CD4+ T cells of PBMC-2; 293-CIITA pulsed with peptide [6]: 9200 pg/mL
IFN-g (pg/ml); CD4+ T cells of PBMC-1; 293-CIITA pulsed with peptide [7]: 6710 pg/mL
IFN-g (pg/ml); CD4+ T cells of PBMC-2; 293-CIITA pulsed with peptide [7]: 6810 pg/mL
IFN-g (pg/ml); CD4+ T cells of PBMC-1; 293-CIITA pulsed with peptide [8]: 6220 pg/mL
IFN-g (pg/ml); CD4+ T cells of PBMC-2; 293-CIITA pulsed with peptide [8]: 7400 pg/mL
IFN-g (pg/ml); CD4+ T cells of PBMC-1; 293-CIITA pulsed with peptide [9]: 669 pg/mL
IFN-g (pg/ml); CD4+ T cells of PBMC-2; 293-CIITA pulsed with peptide [9]: 922 pg/mL
IFN-g (pg/ml); CD4+ T cells of PBMC-1; 293-CIITA pulsed with peptide [10]: 6440 pg/mL
IFN-g (pg/ml); CD4+ T cells of PBMC-2; 293-CIITA pulsed with peptide [10]: 13200 pg/mL
IFN-g (pg/ml); CD4+ T cells of PBMC-1; 293-CIITA pulsed with peptide [11]: 33 pg/mL
IFN-g (pg/ml); CD4+ T cells of PBMC-2; 293-CIITA pulsed with peptide [11]: 37 pg/mL
IFN-g (pg/ml); CD4+ T cells of PBMC-1; 293-CIITA pulsed with peptide [12]: 0 pg/mL
IFN-g (pg/ml); CD4+ T cells of PBMC-2; 293-CIITA pulsed with peptide [12]: 22 pg/mL
IFN-g (pg/ml); CD4+ T cells of PBMC-1; 293-CIITA pulsed with peptide [13]: 43 pg/mL
IFN-g (pg/ml); CD4+ T cells of PBMC-2; 293-CIITA pulsed with peptide [13]: 39 pg/mL
IFN-g (pg/ml); CD4+ T cells of PBMC-1; 293-CIITA pulsed with peptide [14]: 129 pg/mL
IFN-g (pg/ml); CD4+ T cells of PBMC-2; 293-CIITA pulsed with peptide [14]: 108 pg/mL
IFN-g (pg/ml); CD4+ T cells of PBMC-1; 293-CIITA pulsed with peptide [15]: 0 pg/mL
IFN-g (pg/ml); CD4+ T cells of PBMC-2; 293-CIITA pulsed with peptide [15]: 7 pg/mL
IFN-g (pg/ml); CD4+ T cells of PBMC-1; 293-CIITA pulsed with peptide [16]: 22 pg/mL
IFN-g (pg/ml); CD4+ T cells of PBMC-2; 293-CIITA pulsed with peptide [16]: 28 pg/mL
IFN-g (pg/ml); CD4+ T cells of PBMC-1; 293-CIITA pulsed with peptide [17]: 0 pg/mL
IFN-g (pg/ml); CD4+ T cells of PBMC-2; 293-CIITA pulsed with peptide [17]: 11 pg/mL
IFN-g (pg/ml); CD4+ T cells of PBMC-1; 293-CIITA pulsed with peptide [18]: 9 pg/mL
IFN-g (pg/ml); CD4+ T cells of PBMC-2; 293-CIITA pulsed with peptide [18]: 25 pg/mL
IFN-g (pg/ml); CD4+ T cells of PBMC-1; 293-CIITA pulsed with peptide [19]: 193 pg/mL
IFN-g (pg/ml); CD4+ T cells of PBMC-2; 293-CIITA pulsed with peptide [19]: 194 pg/mL
IFN-g (pg/ml); CD4+ T cells of PBMC-1; 293-CIITA pulsed with peptide [20]: 82 pg/mL
IFN-g (pg/ml); CD4+ T cells of PBMC-2; 293-CIITA pulsed with peptide [20]: 226 pg/mL
IFN-g (pg/ml); CD4+ T cells of PBMC-1; 293-CIITA pulsed with peptide [21]: 45 pg/mL
IFN-g (pg/ml); CD4+ T cells of PBMC-2; 293-CIITA pulsed with peptide [21]: 78 pg/mL
IFN-g (pg/ml); CD4+ T cells of PBMC-1; 293-CIITA pulsed with peptide [22]: 0 pg/mL
IFN-g (pg/ml); CD4+ T cells of PBMC-2; 293-CIITA pulsed with peptide [22]: 25 pg/mL
IFN-g (pg/ml); CD4+ T cells of PBMC-1; 293-CIITA pulsed with peptide [23]: 0 pg/mL
IFN-g (pg/ml); CD4+ T cells of PBMC-2; 293-CIITA pulsed with peptide [23]: 21 pg/mL
IFN-g (pg/ml); CD4+ T cells of PBMC-1; 293-CIITA pulsed with peptide [24]: 10200 pg/mL
IFN-g (pg/ml); CD4+ T cells of PBMC-2; 293-CIITA pulsed with peptide [24]: 10400 pg/mL
B1: 6F9 TCR (TCR)
TCR alpha: QTVTQSQPEMSVQEAETVTLSCTYDTSESDYYLFWYKQPPSRQMILVIRQEAYKQQNATENRFSVNFQKAAKSFSLKISDSQLGDAAMYFCALRSSGTYKYIFGTGTRLKVLANIQNPDPAVYQLRDSKSSDKSVCLFTDFDSQTNVSQSKDSDVYITDKTVLDMRSMDFKSNSAVAWSNKSDFACANAFNNSIIPEDTFFPSPESSCDVKLVEKSFETDTNLNFQNLSVIGFRILLLKVAGFNLLMTLRLWSS
TCR beta: GAGVSQSPSNKVTEKGKDVELRCDPISGHTALYWYRQSLGQGLEFLIYFQGNSAPDKSGLPSDRFSAERTGGSVSTLTIQRTQQEDSAVYLCASIRTGPFFSGNTIYFGEGSWLTVVEDLNKVFPPEVAVFEPSEAEISHTQKATLVCLATGFFPDHVELSWWVNGKEVHSGVSTDPQPLKEQPALNDSRYCLSSRLRVSATFWQNPRNHFRCQVQFYGLSENDEWTQDRAKPVTQIVSAEAWGRADCGFTSVSYQQGVLSATILYEILLGKATLYAVLVSALVLMAMVKRKDF
